Source: the nanobody polyreactivity screen of Harvey et al. (2022)

Test: yeast display, Sf9 membrane polyspecificity reagent, FACS + sequencing; frameworks hold sequencing errors
Procedure, shortened: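 Nanobodies from a synthetic yeast display library (Saccharomyces cerevisiae BJ5465), induced 36–48 hours with galactose, were stained 1 hour at 4 °C with 10% biotinylated, detergent-solubilized Sf9 membrane reagent, enriched on streptavidin microbeads, then FACS-sorted. Anti-HA (expression) and streptavidin (reagent binding) fluorescence set low and high (top ~1%) gates. Polyreactivity labels come from the gate of origin. Genes were colony-PCR amplified, MiSeq 2 × 250 sequenced and filtered by CDR length.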

Sequence | polyreactivity (PSR sort gate)
QVQLVESGGGLVQAGGSLRLSCAASGLTFDGNTMGWYRQAPGKERELVAAISFDGGNTYADSVKGRFRISRDNAKNTVYLQMNSLKPEDTAVYYCNASYEYNAGRVETEYDYWGQGTQVTVSS | low polyreactivity
QVQLVESGGGLVQAGGSLRLSCAASGSTIKTYATMGWYRQAPGKERELVSAITSGSSTNYADSVKGRFTISRDNAKNNVYLQMNSLKPEATAVYYCAADDYYNWYLGEPGDYWGQGTQVTVSS | low polyreactivity
QVQLVESGGGLVQAGGSLRLSCAASGFTFYQYAMGWYRQAPGKERELVAAITWNGGSTFYADSVKGRFTISRDNAKNTVYLQMNSLKPEDTAVYYCAARQYFSSYYEYDYWGQGTQVTVSS | high polyreactivity
QVQLVESGGGLVQAGGSLSLSCAASGLILRSYAMGWYRQAPWKERELVAAISGSGGRTYYADSVKGRFTISRDNAKNTVYLLMNSLKPEDTAVYYCAAGWTYRQNGYWGQGTQVTVSS | high polyreactivity
QVQLVESGGGLVQAGGSLRLSFAASGSIFTPNVMGWYRPAPGKERELVAAISQSGGSTFYADSVKGRFTISRDNAKNTVYLQMNSLKPEDTAVYFCATEYYGPVYDLDYDYWGQGTQVTVSS | low polyreactivity
QVQLVESGGGLVQAGGSLRLSCAASGLTSKFYAMGWYRQAPGKERELVAAISGSGGSTYYADSVKGRFTISRDKAKNTVYLQMNSLKPEDTAVYYCAARYFGLRYYYWGQGTQVTVSS | high polyreactivity
QVQLVDSGGCLVQAGRSLRLSCAASGSIYVPNAMGWYRQAPRKERDLVAGISRGGSTNYADSVKGRFTISRDNAKNSVYLQMKRLKPEDTAVYYCARDSRTIRYYAWFYPFRYDYWGQGTQVTVSS | low polyreactivity
QVQLVESGGGLVQAGGSLRLSCAAYGFFYNAMGWYRPAPGKERELVAAISWSGASTYYADSVKGRFTISRDNAKNTVYLQMNSLKPEDTAVFYCNADPRLRQTRDYWGQGTQVSVSS | high polyreactivity
QVQLVESGGGLVQAGGSLRLSCAASGSIFAGYAMGWYRQAPGKERELVATITSSSRTNYADSVKGRFTISRDNAKNTVYLQMNSLKPEDTAVYYCAARGRYVIDGYRMYYWGQGTQVTVSS | high polyreactivity
QVQLVESGGGLVQAGGSLRLSCAASGFTFWYYAMGWYRPAPGNERELVASISRTGGTTYYADSVKGRFTISRDNAKNTVDLQMTSLKPEDTAVYYCNARPKVYDREYDYWGQGTQVTVSS | high polyreactivity
QVQLVESGGGLVQAGGSLRLSCAASGFILGLNAMGWYRQAPGKEREFVADISWSGDSTYYADSVKGRFTISRDNAKNTVYLQMNSLKPEDTAVYYCAADPYYNWCYYYWGQGTQVTVSS | low polyreactivity
QVQLVESGGGLVQAGGSLRLSSAASGRIFPYYAMGWYRQAPGKERELVAAITSSGGSTYYADSVKGRFTISRDTAKNTVYFQMNSLKPEDSAVYYCAGTSPYDDYPYTRGIYAYGYWGQCTQVTVSS | low polyreactivity
QLQLVESGAGRVQAGGSLRLRCAAAGSILRDNAMVWYRQAPWKEREFVADIRGSDDTTYYADSVKGRFTISRDNGKNSVYLQMNSLKPEDTAVYYSNRDDAWQEYDYWGQGTQVTVSS | low polyreactivity
QVQLVESGGGLVQAGGSLRLSCAASGSTFGYYAMGWYRQAPGKERELVAVITSGGSTYYADSVKGRFTISRDNAKNTVFLQMNSLKPEDTAVYYCYARVQAVHYGYWGQGTQVTVSS | high polyreactivity
QVQLVESGGALVQAGGSLRLICAASGRTFQKYTMGWYRQAPGKERELVAAISKRGGSTYYADSVKGRFTISRDNAKNTVYLQMNSLKPEDTAVYYCATRVYRSAVSYDYWGQGTQVTVSS | high polyreactivity
QVQLVESGGGLVQAGGSLRLSCAASGSIFNINAMGWYRQAPGKESELVATITSGGTTSYADSVKGRFTISRDNAKNTVYLQMNSLKPEDTAVYYCNAEIYPIVKAGLQHPRRYDYWGQGTQVTVSS | low polyreactivity

Sequence | polyreactivity (PSR sort gate)
QVQLEDSGGGLVQAGGSLRLSCAASGFTILRYAMGWYRQAPGKERELVAAIDWYGGSTYYADSVKGRFTISRDNAKNTVFVQMNSLKPEDCAVYYCNARKINFPSRFNDWGQGTQVTVSS | low polyreactivity
QVQLVESGGGLVQAGGSLRLSCAASGFTFGYYAKGWYRQAPGKERELVAGISRGGRTNYADSVKGRFTISRDNAKNTVYLQMNSLKPEDTAVYYCAKDTYYPSSRYNRYYYWGQGSQVTVSS | high polyreactivity
QVQLVETAGGLVHAGGSLRLSCADSGRIFERNAMGWNRQSPGKERELVARITSGGGTYYADSVKGRFTISRDNAKNTVYLQMNSLKPEDTAVYYCAVQYLYRKYRRYDYWGQGTQVTVSS | high polyreactivity
QVQLVESGGGLVQAGGSLRLSCAASGRILYRYAMGWYRQAPGKERELVADISWSGGSRYYADSVKGRFTISRDNAKNTVYLQMNSLKPEDTAVYYCAAFRLWYSTFDYWGQGTQVTVSS | high polyreactivity
QVQLVESGGGLVQAGGSLRLSCAASGFTFPLNAMGWYRQAPWKERELVAAITNGGTTYYADSVKGRFTISRDNAKNTVYLQMNSLKPEDTGVYYCAAYTYRYGSFKYGYWGQGTQVTVSS | low polyreactivity
QFQLVESGGGLVQAGGSLRLSCAASGRIFVRYAMGWYRQAPGKERELVAGITWSGGSTYYADSVKGRFTISRDNSKNTVYLQMNSLKPEDTAVYYCAAERRFYTSYKSKMESCGQGTQVTVSS | high polyreactivity
QVQLVESGGGLVQAGGSLRLSCAASGRITGIYAMGWYRPAPGKERELVAAITWRGGRTCYADSVKGRFTISRDNAKNSVYLQMNSLKPEDTAVYYCAAELQGAYYFAYYYWGQGTQVTVSS | high polyreactivity
QVQLVESGGGLVQAGGSLRLSCAASGRIFLRYVMGWYRQAPGKERELVAAIRSNGGSTYADSVKGRFTISRDNAKNTVYLQMNSLKPEDTAVYYCAARYFNTKGSFVVGYGYWGQGSQVTVSS | high polyreactivity
QVQLVESGGGLVQAGGSLRLSCAASGITFPVYAMGWYRQAPGKERELVATITSSGGRTYYADSVKGRFTISRDNAKNTVYLQMNSLKPEDTAVYYCAARPPYIRTLYYWGQGTQVTVSS | high polyreactivity
QVQLVESGGGLVQAGGSLRLSCAASGSTGYYAMGWYRQAPGKERELVAAISYRGASTYYADSVKGRFTISRDNAKNTVYLQMNSLKPEDTAVYYCAALRQERVKYGYWGQGTQVTVSS | high polyreactivity
QVQLVESGGGLVQAGGSLRLSCAASGRTFATYSMGRYIQAPGKERELVAAISRSGSTTYYADSVKGRFTISRDNAKNTVYLQMNSLKPEDTAVYYCNAKFRKADYDYWGQGTQVTVSS | high polyreactivity
QVQLVESGGGLVQAGGSLRLSCAASGFIFGGYAMGWYRQAPGKERELVAAITWSGGNTYYADSVKGRFTISRDNAKNTVYLQMNSLKPEDTAVYYCAADYWTKYGYWGLGTQVTVSS | low polyreactivity
QVQLVESGGGLVQAGGSLRLSCAASGITFRYNAMGWYRQAPGKERELVAAISYSGGSTYYADSVKGRFTISRDNAKNTVYLQMNSLKPEDTAVYYCAARIYSYPRGQYDYWGQGTQVTVSS | low polyreactivity
QVQLVESGGGLVQAGGSLRLSCADSGLILYTYAMGWYRQAPGKERELVAAIDWGDGDTYYADSVKGRFTISRDNAKNTVYLQMNSLKPEDTAVYYCAADLVGYSGYYFDEEYYWGQGTQVTVSS | high polyreactivity
QVQLVESGGGLVQAGGSLRLSCAASGSIFLVTAMGWYRQAPGKERELVAAITFGGDSTYYADSVKGRFTISRDNAKNTVYLQMNSLKPEDTAVYYCAADPSPYGDEYDYWGQGTQVTVSS | low polyreactivity
QVQLVESGGGLVQAGGSLRLSCAASGGTFRKNTMGWYRQAPGKERELVAAITRRADRTYYADSVKGRFTISRDNAKNTVYLQMNSLKPEDTAVYYCNAPPPPTKVGGYDYWGQGTQVTVSS | high polyreactivity
